Data from patent publication US20130196383A1, “Method of Producing Dicer” (published 2013).
Values belong to the binder of their own block, whether it stands above or below them.

Experiments:
[1] = target: T1, hDcr-CΔRBD fragment of human Dicer (Homo sapiens, UniProt Q9UPY3 SEQ:1235-1844); test: filter; out of detectable limit; conditions: tags: expressed from pHMGWA-His6-MBP vector, E. coli
T1 chain: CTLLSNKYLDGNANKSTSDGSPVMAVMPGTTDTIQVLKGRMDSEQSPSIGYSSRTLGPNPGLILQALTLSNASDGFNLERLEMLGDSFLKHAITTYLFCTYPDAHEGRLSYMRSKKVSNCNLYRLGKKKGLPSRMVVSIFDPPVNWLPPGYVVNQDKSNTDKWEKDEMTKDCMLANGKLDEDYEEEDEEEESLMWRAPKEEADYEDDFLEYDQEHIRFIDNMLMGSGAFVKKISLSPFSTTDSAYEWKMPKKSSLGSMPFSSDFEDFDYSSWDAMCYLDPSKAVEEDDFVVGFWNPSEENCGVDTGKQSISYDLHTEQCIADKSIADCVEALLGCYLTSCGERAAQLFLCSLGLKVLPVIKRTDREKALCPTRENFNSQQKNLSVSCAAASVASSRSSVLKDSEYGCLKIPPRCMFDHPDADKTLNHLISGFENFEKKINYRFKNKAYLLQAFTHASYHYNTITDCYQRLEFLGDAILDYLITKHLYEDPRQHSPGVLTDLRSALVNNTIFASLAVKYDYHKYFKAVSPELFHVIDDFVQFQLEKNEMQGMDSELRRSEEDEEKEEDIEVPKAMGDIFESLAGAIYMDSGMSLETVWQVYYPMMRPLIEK
Method: (§1) Filter binding assays of hDcr and different hDcr fragments were performed in the same way as previously described (7). Briefly, serial dilutions of hDcr protein were incubated in a buffer containing 20 mM Tris-HCl (pH 7.5), 25 mM NaCl, 5 mM EDTA, 1 mM dithiothreitol (DTT), 1% glycerol and ˜0.5-1 nM (1500 CPM) of 5′-end ³²P-labeled duplex RNA substrate (one strand was labeled) at room temperature for 60 min in a 30 μl of total volume. Following incubation, a 25 μl aliquot of each reaction was applied to a dot-blot apparatus equipped with three membranes: Tuffryn, Protran and Nytran (from top to bottom). After drying, the bound (on Protran) or free (on Nytran) RNAs were quantified by a Phosphorimager (GE Healthcare). Percent bound RNA, calculated as the ratio of radioactivity detected on the Protran membrane over the total input radioactivity, was plotted as a function of protein concentration. Kd was determined by global fitting to the equation: kobsd=(kₘₐₓ[…]) (Kd+[Dicer])−1, where kobsd is the observed rate constant at a given protein concentration, kₘₐₓ is the maximal rate constant with saturating protein, and Kd is the protein concentration that provides half the maximal rate. Curve fitting was conducted with KaleidaGraph (Synergy Software, Reading, Pa.).
To establish the relationship between cleavage activity and substrate binding, nitrocellulose filter-binding assays were performed with three kinds of RNAs under non-cleavage conditions: substrate dsRNA ([…]), Dicer product-mimic dsRNA (19-bp) and a pre-miRNA (pre-hlet-7a-1).

[2] = target: T2, hDcr-N, N-terminal fragment of human Dicer (1-1068; ATPase/hel, DUF283 and PAZ domains), co-expressed in Sf9 … (human, UniProt Q9UPY3 1-1068); test: co-expression in Sf9 cells, co-purification
T2 construct: Co-expressed with hDcr-C in baculovirus-infected Sf9 cells; It could not be expressed alone
T2 sequence: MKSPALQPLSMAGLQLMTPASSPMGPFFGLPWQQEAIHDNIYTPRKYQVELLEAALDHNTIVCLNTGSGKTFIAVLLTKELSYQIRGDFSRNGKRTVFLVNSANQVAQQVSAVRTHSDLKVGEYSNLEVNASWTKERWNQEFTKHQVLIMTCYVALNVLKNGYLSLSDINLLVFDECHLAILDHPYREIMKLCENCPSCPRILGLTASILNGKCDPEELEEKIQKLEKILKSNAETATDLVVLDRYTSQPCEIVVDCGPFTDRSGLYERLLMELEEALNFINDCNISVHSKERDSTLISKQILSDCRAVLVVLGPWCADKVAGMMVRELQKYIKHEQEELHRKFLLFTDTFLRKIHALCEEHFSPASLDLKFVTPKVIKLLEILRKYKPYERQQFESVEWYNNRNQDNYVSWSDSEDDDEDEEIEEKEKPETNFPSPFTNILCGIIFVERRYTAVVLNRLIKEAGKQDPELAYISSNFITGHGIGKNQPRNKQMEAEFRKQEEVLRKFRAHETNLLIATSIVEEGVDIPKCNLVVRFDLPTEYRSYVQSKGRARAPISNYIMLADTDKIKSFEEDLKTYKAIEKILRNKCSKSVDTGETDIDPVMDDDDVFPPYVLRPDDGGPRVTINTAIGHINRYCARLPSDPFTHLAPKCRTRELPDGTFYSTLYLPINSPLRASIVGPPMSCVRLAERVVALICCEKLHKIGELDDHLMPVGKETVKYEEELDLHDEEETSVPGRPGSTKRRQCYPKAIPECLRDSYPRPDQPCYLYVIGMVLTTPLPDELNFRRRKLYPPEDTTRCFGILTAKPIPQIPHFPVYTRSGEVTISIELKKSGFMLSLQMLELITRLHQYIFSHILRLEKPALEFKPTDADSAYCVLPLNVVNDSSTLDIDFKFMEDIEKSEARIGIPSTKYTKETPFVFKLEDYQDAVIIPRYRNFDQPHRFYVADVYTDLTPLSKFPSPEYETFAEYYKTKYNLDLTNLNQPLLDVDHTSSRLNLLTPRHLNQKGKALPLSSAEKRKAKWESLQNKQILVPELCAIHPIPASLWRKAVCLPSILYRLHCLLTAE

[3] = target: T3, DP, tandem DUF283-PAZ domains of human Dicer (605-1068), bacterially expressed
T3 chain: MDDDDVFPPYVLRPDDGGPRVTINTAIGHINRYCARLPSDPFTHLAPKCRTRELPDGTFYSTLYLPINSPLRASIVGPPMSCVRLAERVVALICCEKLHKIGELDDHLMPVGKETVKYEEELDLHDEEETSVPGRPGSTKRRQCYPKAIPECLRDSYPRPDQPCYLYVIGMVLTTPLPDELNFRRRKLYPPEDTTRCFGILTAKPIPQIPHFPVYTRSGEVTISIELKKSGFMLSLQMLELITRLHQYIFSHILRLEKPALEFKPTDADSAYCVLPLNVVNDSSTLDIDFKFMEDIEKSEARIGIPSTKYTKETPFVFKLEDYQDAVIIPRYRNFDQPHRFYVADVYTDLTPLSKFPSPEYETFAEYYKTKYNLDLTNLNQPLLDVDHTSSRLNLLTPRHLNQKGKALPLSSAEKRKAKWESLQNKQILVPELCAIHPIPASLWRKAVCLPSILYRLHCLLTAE

[4] = target: T4, hDcr-C (RNase IIIa/IIIb-dsRBD) fragment of human Dicer (Homo sapiens, UniProt Q9UPY3 SEQ:1235-1922); test: filter; out of detectable limit; almost no binding; conditions: tags: expressed from pHMGWA-His6-MBP vector, E. coli; label: 5'-32P; hairpin pre-miRNA, 73 nt
T4 chain: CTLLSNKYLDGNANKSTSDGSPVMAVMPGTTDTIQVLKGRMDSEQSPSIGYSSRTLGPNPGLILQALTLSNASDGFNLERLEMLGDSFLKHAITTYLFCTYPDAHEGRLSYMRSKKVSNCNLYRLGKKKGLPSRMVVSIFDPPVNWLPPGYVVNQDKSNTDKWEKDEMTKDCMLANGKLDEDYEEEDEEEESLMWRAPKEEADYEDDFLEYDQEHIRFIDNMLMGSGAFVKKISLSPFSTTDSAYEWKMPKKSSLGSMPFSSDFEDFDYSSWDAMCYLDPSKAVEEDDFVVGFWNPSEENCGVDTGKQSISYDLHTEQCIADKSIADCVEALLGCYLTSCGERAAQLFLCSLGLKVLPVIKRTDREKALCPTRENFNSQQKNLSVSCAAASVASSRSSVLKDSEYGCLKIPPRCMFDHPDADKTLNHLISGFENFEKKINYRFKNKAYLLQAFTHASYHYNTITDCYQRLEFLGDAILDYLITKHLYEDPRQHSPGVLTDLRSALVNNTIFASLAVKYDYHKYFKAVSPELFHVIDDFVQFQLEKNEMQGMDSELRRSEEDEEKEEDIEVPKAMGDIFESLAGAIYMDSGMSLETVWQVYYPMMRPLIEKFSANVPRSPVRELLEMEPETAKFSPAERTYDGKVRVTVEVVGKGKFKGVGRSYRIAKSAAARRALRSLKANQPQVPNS
Method: as §1, with “Pa.). […]” for “Pa.).”

B1: 37ab (dsRNA)
RNA 1: UGAGGUAGUAGGUUGUAUAGUUUGAAAGUUCACGAUU
RNA 2: UCGUGAACUUUCAAACUAUACAACCUACUACCUCAUU
- binding result ([1]; label: 5'-32P on one strand (37a), perfectly matched 35-bp duplex): no binding

- binding result [2]: binds
B2: hDcr-C, C-terminal fragment of human Dicer (1235-1922; two RNase III domains and C-terminal dsRBD), co-expressed in Sf9 cells (enzyme)
chain: CTLLSNKYLDGNANKSTSDGSPVMAVMPGTTDTIQVLKGRMDSEQSPSIGYSSRTLGPNPGLILQALTLSNASDGFNLERLEMLGDSFLKHAITTYLFCTYPDAHEGRLSYMRSKKVSNCNLYRLGKKKGLPSRMVVSIFDPPVNWLPPGYVVNQDKSNTDKWEKDEMTKDCMLANGKLDEDYEEEDEEEESLMWRAPKEEADYEDDFLEYDQEHIRFIDNMLMGSGAFVKKISLSPFSTTDSAYEWKMPKKSSLGSMPFSSDFEDFDYSSWDAMCYLDPSKAVEEDDFVVGFWNPSEENCGVDTGKQSISYDLHTEQCIADKSIADCVEALLGCYLTSCGERAAQLFLCSLGLKVLPVIKRTDREKALCPTRENFNSQQKNLSVSCAAASVASSRSSVLKDSEYGCLKIPPRCMFDHPDADKTLNHLISGFENFEKKINYRFKNKAYLLQAFTHASYHYNTITDCYQRLEFLGDAILDYLITKHLYEDPRQHSPGVLTDLRSALVNNTIFASLAVKYDYHKYFKAVSPELFHVIDDFVQFQLEKNEMQGMDSELRRSEEDEEKEEDIEVPKAMGDIFESLAGAIYMDSGMSLETVWQVYYPMMRPLIEKFSANVPRSPVRELLEMEPETAKFSPAERTYDGKVRVTVEVVGKGKFKGVGRSYRIAKSAAARRALRSLKANQPQVPNS
- RNA cleavage assay (37ab dsRNA), size pattern of the products [3]: addition of the DP polypeptide to the hDcr-C cleavage reaction led to RNA products similar to those produced by full-length Dicer

B3: pre-hlet-7a-1 (ssRNA)
RNA: UGAGGUAGUAGGUUGUAUAGUUUUAGGGUCACACCCACCACUGGGAGAUAACUAUACAAUCUACUGUCUUACC
- binding result ([1]; label: 5'-32P, hairpin pre-miRNA, 73 nt): no binding
- binding result [4]: no binding
